US20230218738A1 (Pfizer, published 2023)
Positions count from the first letter of the chain named.

T1: RSV F protein mutant pXCS774 (RSV A2, UniProt P03420 26-109)
T1 chain 1: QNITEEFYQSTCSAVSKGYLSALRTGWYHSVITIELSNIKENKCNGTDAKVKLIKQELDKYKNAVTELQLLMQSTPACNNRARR
T1 chain 2: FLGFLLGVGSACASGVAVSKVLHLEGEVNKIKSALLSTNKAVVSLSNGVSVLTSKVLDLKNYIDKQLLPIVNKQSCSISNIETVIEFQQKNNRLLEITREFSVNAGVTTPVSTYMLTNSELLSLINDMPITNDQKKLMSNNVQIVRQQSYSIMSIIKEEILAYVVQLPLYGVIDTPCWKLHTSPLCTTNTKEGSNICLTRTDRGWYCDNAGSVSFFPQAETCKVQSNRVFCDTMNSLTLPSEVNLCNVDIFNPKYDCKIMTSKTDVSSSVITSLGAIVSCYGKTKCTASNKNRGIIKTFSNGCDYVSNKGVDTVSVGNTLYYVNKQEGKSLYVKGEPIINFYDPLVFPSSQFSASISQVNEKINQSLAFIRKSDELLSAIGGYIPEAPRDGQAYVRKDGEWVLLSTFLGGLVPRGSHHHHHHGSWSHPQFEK

T2: RSV F protein mutant pXCS842 (RSV A2, UniProt P03420 26-109)
T2 chain 1: T1 chain 1
T2 chain 2: T1 chain 2 with S54I, I160V, Q351E, S353D

T3: RSV F protein mutant pXCS858 (RSV A2, UniProt P03420 26-109)
T3 chain 1: T1 chain 1 with S30C, C78T
T3 chain 2: T1 chain 2 with C12I, L52C, S54I, Q351E, S353D

T4: RSV F protein mutant pXCS886 (RSV A2, UniProt P03420 26-109)
T4 chain 1: T1 chain 1
T4 chain 2: T1 chain 2 with S54I, I160V

T5: RSV F protein mutant pXCS738 (RSV A2, UniProt P03420 26-109)
T5 chain 1: T1 chain 1 with S30C, C78T
T5 chain 2: T1 chain 2 with L6C, C12I, L52C, N235C, S350D, Q351E, S353D

B1: MPE8 (antibody, V domains shown)
VH: EVQLVESGGGLVKPGGSLRLSCAASGFTFSSYSMNWVRQAPGKGLEWVSSISASSSYSDYADSAKGRFTISRDNAKTSLFLQMNSLRAEDTAIYFCARARATGYSSITPYFDIWGQGTLVTVSS
VL: QSVVTQTPSVSGAPGQRVTISCTGSSSNIGAGYDVHWYQQLPGTAPKLLIYDNNNRPSGVPDRFSASKSGTSASLAITGLQAEDEADYYCQSYDRNLSGVFGTGTKVTVL
notes: also called MPEG
B2: AM22 (antibody, V domains shown)
VH: QVQLVQSGAEVKKPGATVKVSCKISGHTLIKLSIHWVRQAPGKGLEWMGGYEGEVDEIFYAQKFQHRLTVIADTATDTVYMELGRLTSDDTAVYFCGTLGVTVTEAGLGIDDYWGQGTLVTVSS
VL: EIVLTQSPGTLSLSPGERATLSCRASQIVSRNHLAWYQQKPGQAPRLLIFGASSRATGIPVRFSGSGSGTDFTLTINGLAPEDFAVYYCLSSDSSIFTFGPGTKVDFK

What was measured:
Test in all cases: BLI (Octet), F on anti-HIS tip, 20 nM mAb
[1] = target: T1, RSV F protein mutant pXCS774
[2] = target: RSV F protein mutant pXCS787 (RSV A2, UniProt P03420 26-109)
[3] = target: T2, RSV F protein mutant pXCS842
[4] = target: T3, RSV F protein mutant pXCS858
[5] = target: T4, RSV F protein mutant pXCS886
[6] = target: T5, RSV F protein mutant pXCS738

Binder | Response (nm shift) [1] [nm] | Response (nm shift) [2] [nm] | Response (nm shift) [3] [nm] | Response (nm shift) [4] [nm] | Response (nm shift) [5] [nm] | Response (nm shift) [6] [nm]
B1 | 0.795 | 0.621 | 0.932 | 1.06 | 0.863 | 0.741
B2 | 0.34 | 0.225 | 0.493 | 0.547 | 0.443 | 0.273
